From paper PMC12041213 (Nature Communications, 2025)

How the values were obtained:
Assay in all cases: co-IP
[1] = target: T1, His-Ash1 (purified recombinant) (S. cerevisiae, UniProt P34233 1-588)
T1 sequence (looked up): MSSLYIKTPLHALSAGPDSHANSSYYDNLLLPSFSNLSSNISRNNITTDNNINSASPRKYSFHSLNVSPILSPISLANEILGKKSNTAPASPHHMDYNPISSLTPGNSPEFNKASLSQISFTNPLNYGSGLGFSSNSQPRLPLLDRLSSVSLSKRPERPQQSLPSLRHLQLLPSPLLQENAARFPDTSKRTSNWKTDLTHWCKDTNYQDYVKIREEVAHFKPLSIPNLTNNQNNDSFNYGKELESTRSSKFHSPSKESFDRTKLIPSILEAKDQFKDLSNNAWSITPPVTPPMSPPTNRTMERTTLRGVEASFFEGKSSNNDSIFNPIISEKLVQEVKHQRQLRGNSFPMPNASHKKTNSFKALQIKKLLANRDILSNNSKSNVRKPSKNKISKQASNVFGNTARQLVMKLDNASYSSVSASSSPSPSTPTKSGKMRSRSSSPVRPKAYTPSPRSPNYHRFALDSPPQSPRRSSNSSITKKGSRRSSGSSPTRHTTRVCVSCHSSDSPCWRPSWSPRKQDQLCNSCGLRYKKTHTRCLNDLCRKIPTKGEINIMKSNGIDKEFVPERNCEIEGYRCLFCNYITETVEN

[2] = target: T2, His-Ash1 phosphorylated by Tpk2-CBP (S. cerevisiae, UniProt P34233 1-588, phosphorylated by Tpk2-CBP at S149 and S388)
T2 sequence (looked up): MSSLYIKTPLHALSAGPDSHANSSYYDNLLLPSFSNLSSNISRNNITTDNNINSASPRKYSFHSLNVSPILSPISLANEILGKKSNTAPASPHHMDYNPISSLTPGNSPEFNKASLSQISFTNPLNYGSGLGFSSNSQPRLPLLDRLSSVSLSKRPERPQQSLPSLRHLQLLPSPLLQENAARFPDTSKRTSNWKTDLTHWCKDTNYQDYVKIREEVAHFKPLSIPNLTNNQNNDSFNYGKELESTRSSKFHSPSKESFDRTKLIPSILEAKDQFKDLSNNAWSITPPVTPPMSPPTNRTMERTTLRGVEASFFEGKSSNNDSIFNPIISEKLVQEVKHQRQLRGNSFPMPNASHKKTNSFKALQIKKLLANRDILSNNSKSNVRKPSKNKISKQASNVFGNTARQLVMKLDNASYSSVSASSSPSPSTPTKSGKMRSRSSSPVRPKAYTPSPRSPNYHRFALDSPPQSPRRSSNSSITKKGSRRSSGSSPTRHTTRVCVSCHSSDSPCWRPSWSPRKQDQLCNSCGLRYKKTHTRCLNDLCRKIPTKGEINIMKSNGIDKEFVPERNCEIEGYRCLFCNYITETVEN

[3] = target: T3, His-Ash1-2SA (Ash1-S149A S388A) (S. cerevisiae, UniProt P34233 1-588, S149A | S388A)
T3 sequence (looked up): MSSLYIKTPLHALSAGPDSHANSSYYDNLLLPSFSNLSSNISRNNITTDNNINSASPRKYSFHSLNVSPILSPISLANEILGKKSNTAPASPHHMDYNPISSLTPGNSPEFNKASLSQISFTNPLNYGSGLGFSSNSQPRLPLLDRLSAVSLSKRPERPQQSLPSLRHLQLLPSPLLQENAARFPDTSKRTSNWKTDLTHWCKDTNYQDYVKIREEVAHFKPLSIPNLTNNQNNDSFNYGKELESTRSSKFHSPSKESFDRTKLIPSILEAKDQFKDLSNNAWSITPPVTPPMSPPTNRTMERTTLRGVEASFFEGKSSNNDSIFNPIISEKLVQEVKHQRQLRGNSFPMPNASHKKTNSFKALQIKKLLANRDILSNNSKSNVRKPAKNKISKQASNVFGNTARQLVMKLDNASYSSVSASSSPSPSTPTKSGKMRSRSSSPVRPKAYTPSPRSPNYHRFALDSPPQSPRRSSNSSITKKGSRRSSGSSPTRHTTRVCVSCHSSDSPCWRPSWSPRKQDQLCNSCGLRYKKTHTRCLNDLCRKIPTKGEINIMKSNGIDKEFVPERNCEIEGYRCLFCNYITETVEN

Measured: binding result

B1: Ubp8-FLAG (purified recombinant) (enzyme, S. cerevisiae, UniProt P50102 1-471, looked up)
chain: MSICPHIQQVFQNEKSKDGVLKTCNAARYILNHSVPKEKFLNTMKCGTCHEINSGATFMCLQCGFCGCWNHSHFLSHSKQIGHIFGINSNNGLLFCFKCEDYIGNIDLINDAILAKYWDDVCTKTMVPSMERRDGLSGLINMGSTCFMSSILQCLIHNPYFIRHSMSQIHSNNCKVRSPDKCFSCALDKIVHELYGALNTKQASSSSTSTNRQTGFIYLLTCAWKINQNLAGYSQQDAHEFWQFIINQIHQSYVLDLPNAKEVSRANNKQCECIVHTVFEGSLESSIVCPGCQNNSKTTIDPFLDLSLDIKDKKKLYECLDSFHKKEQLKDFNYHCGECNSTQDAIKQLGIHKLPSVLVLQLKRFEHLLNGSNRKLDDFIEFPTYLNMKNYCSTKEKDKHSENGKVPDIIYELIGIVSHKGTVNEGHYIAFCKISGGQWFKFNDSMVSSISQEEVLKEQAYLLFYTIRQVN
binds: all assays above
